Results taken from article PMC6007550 (Nucleic Acids Research, 2018).
Positions count from the first letter of the chain named. In names and notes the source's numbering stands.

B1: Sin R54E/I113V catalytic domain (residues 1-128) (domain or fragment, UniProt P20384 1-128, looked up)
chain: MIIGYARVSSLDQNLERQLENLKTFGAEKIFTEKQSGKSIENRPILQKALNFVEMGDRFIVESIDRLGRNYNEVIHTVNYLKDKEVQLMITSLPMMNEVIGNPLLDKFMKDLVIQILAMVSEQERNES
modifications: selenomethionine in place of methionine
B2: Sin R54E/I100T/Q115R catalytic domain (residues 1-128) (domain or fragment, UniProt P20384 1-128, looked up)
chain: B1 chain with I100T, V113I, Q115R
modifications: selenomethionine in place of methionine
B3: Sin R54E/T77I/I100T/Q115R catalytic domain (residues 1-128) (domain or fragment, UniProt P20384 1-128, looked up)
chain: B1 chain with T77I, I100T, V113I, Q115R
modifications: selenomethionine in place of methionine
B4: Sin R54E/I100T catalytic domain (residues 1-128) (domain or fragment, UniProt P20384 1-128, looked up)
chain: B1 chain with I100T, V113I
modifications: selenomethionine in place of methionine

Target: the molecule itself
Assay: crystal structure

Protein	stoichiometry N
B1	4
B2	4
B3	4
B4	4
